Each block holds one molecule with its values, some of them ahead of it.
Key:
[1] = tested on: 3×MBT domain of L3MBTL1; experiment: Triple SILAC pull-down, 3xMBT/3xMBTD355N ratio (cytoplasmic, nuclear and chromatin fractions of 293T cells); type: binding, human; conditions: for 3xMBT/D355N UNC Heavy: experiment with UNC0638 in heavy SILAC media; for 3xMBT/D355N UNC Light: experiment with UNC0638 in light SILAC media;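 as to all read-outs here: proteins quantified with MaxQuant, requiring at least two unique peptides and quantification in both label directions, normalized to the mean of proteins from a digested loading control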
[2] = target: T1, G9a and GLP (Homo sapiens, UniProt Q96KQ7+Q9H9B1); experiment: Triple SILAC pull-down after UNC0638 treatment of 293T cells, DMSO/UNC0638 ratio of protein captured by 3×MBT; type: cell-based; set-up: cells were treated for 24 hours with UNC0638 at 2.5 μM or DMSO vehicle control; endogenous in cells; host or cells: HEK 293T; conditions: for Relative to UNC0638 UNC Heavy: UNC0638 in heavy SILAC media; for Relative to UNC0638 UNC Light: UNC0638 in light SILAC media; for Relative to UNC0638 Average: average of UNC Light and UNC Heavy experiments;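 as to all read-outs here: mass spectrometry (Q-Exactive) SILAC quantitation, DMSO/UNC0638 ratio computed after subtracting 3×MBTD355N mutant pull-down background, only proteins with at least twofold 3×MBT over mutant signal considered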
T1 sequence (Q96KQ7 2-1210 limits assumed): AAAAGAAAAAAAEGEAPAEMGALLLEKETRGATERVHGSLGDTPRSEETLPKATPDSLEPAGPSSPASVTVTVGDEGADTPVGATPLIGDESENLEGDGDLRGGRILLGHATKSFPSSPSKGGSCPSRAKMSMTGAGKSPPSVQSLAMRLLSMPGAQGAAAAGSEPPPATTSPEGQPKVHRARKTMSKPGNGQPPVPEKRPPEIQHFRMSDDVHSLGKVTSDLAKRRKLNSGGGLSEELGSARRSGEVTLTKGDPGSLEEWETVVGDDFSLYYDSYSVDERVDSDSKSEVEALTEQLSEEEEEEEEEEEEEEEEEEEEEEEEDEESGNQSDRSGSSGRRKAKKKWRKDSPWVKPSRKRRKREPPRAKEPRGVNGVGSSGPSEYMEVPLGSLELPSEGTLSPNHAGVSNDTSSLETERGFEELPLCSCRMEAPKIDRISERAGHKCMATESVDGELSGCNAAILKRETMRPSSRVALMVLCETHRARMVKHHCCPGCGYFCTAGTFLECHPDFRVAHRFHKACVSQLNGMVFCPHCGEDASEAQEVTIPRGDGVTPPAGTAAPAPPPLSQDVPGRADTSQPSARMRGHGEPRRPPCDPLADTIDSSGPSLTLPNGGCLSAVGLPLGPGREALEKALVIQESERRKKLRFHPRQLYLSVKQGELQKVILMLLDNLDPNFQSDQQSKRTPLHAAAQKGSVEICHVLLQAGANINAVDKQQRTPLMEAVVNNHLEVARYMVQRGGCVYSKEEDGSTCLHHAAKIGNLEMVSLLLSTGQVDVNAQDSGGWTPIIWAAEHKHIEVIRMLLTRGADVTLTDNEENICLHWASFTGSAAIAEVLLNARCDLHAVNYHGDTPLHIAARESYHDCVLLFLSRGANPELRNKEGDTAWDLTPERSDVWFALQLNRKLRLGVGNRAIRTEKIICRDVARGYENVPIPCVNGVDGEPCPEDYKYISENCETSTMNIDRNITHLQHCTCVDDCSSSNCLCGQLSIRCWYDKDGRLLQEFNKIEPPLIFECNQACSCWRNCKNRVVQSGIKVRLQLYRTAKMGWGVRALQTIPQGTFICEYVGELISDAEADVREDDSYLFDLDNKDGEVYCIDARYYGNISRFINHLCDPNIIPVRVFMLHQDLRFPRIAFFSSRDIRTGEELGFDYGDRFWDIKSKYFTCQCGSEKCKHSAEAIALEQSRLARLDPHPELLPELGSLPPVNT
T1 sequence (Q9H9B1 2-1298 limits assumed): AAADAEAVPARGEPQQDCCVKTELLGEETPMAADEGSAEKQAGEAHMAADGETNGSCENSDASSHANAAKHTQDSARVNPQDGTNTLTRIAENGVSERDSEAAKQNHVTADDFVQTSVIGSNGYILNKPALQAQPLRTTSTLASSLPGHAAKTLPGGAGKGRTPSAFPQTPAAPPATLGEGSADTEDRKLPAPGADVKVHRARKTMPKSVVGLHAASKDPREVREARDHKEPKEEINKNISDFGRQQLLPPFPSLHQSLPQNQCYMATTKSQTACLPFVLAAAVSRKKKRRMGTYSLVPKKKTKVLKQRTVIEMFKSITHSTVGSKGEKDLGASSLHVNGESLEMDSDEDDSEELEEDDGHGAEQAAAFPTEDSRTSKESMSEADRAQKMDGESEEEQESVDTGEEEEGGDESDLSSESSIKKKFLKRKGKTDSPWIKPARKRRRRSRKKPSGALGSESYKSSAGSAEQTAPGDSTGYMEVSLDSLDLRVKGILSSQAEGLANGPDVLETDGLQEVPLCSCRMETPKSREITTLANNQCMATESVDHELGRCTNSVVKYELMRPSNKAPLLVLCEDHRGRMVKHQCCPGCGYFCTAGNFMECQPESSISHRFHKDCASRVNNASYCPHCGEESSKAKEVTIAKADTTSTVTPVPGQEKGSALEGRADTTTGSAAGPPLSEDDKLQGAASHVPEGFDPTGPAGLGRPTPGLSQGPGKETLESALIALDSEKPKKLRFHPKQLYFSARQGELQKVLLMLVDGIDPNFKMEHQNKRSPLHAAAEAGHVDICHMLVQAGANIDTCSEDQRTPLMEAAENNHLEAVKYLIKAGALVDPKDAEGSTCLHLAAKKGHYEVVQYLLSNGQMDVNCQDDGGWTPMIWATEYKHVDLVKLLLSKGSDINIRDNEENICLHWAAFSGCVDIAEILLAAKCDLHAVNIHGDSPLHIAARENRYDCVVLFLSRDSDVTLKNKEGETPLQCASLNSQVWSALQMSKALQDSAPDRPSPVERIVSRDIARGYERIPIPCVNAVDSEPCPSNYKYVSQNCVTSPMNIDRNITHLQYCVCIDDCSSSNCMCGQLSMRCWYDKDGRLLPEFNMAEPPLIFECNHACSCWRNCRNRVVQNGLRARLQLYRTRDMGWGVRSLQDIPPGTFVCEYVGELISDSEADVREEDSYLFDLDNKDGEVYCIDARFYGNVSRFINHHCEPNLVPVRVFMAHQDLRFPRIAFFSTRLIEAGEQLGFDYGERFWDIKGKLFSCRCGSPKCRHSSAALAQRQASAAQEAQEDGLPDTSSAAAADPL

[3] = SILAC ratio 3xMBT vs 3xMBTD355N pull-down, 293T cells, all values in log base 2
[4] = SILAC ratio DMSO relative to UNC0638, pull-down with 3xMBT, all values in log base 2
[5] = SILAC ratio, pull-down 3xMBT vs 3xMBTD355N
[6] = SILAC ratio DMSO/UNC0638 of protein pulled down with 3xMBT

Relative to UNC0638 UNC Heavy [2, 4]: 0.18 log base 2 | Relative to UNC0638 UNC Light [2, 4]: 0.03 log base 2 | Relative to UNC0638 Average ([2]; all values in log base 2): 0.10 log base 2
B1: MCM5 (protein, UniProt P33992 2-734, looked up)
DNA replication licensing …: SGFDDPGIFYSDSFGGDAQADEGQARKSQLQRRFKEFLRQYRVGTDRTGFTFKYRDELKRHYNLGEYWIEVEMEDLASFDEDLADYLYKQPAEHLQLLEEAAKEVADEVTRPRPSGEEVLQDIQVMLKSDASPSSIRSLKSDMMSHLVKIPGIIIAASAVRAKATRISIQCRSCRNTLTNIAMRPGLEGYALPRKCNTDQAGRPKCPLDPYFIMPDKCKCVDFQTLKLQELPDAVPHGEMPRHMQLYCDRYLCDKVVPGNRVTIMGIYSIKKFGLTTSRGRDRVGVGIRSSYIRVLGIQVDTDGSGRSFAGAVSPQEEEEFRRLAALPNVYEVISKSIAPSIFGGTDMKKAIACLLFGGSRKRLPDGLTRRGDINLLMLGDPGTAKSQLLKFVEKCSPIGVYTSGKGSSAAGLTASVMRDPSSRNFIMEGGAMVLADGGVVCIDEFDKMREDDRVAIHEAMEQQTISIAKAGITTTLNSRCSVLAAANSVFGRWDETKGEDNIDFMPTILSRFDMIFIVKDEHNEERDVMLAKHVITLHVSALTQTQAVEGEIDLAKLKKFIAYCRVKCGPRLSAEAAEKLKNRYIIMRSGARQHERDSDRRSSIPITVRQLEAIVRIAEALSKMKLQPFATEADVEEALRLFQVSTLDAALSGTLSGVEGFTSQEDQEMLSRIEKQLKRRFAIGSQVSEHSIIKDFTKQKYPEHAIHKVLQLMLRRGEIQHRMQRKVLYRLK
3xMBT/D355N UNC Heavy [1, 3]: 2.23 log base 2 | 3xMBT/D355N UNC Light [1, 3]: 2.79 log base 2

Relative to UNC0638 UNC Heavy [2, 4]: 0.13 log base 2 | Relative to UNC0638 UNC Light [2, 4]: 0.07 log base 2 | Relative to UNC0638 Average ([2]; all values in log base 2): 0.10 log base 2
B2: PRMT3 (protein, UniProt O60678 2-531, looked up)
Protein arginine …: CSLASGATGGRGAVENEEDLPELSDSGDEAAWEDEDDADLPHGKQQTPCLFCNRLFTSAEETFSHCKSEHQFNIDSMVHKHGLEFYGYIKLINFIRLKNPTVEYMNSIYNPVPWEKEEYLKPVLEDDLLLQFDVEDLYEPVSVPFSYPNGLSENTSVVEKLKHMEARALSAEAALARAREDLQKMKQFAQDFVMHTDVRTCSSSTSVIADLQEDEDGVYFSSYGHYGIHEEMLKDKIRTESYRDFIYQNPHIFKDKVVLDVGCGTGILSMFAAKAGAKKVLGVDQSEILYQAMDIIRLNKLEDTITLIKGKIEEVHLPVEKVDVIISEWMGYFLLFESMLDSVLYAKNKYLAKGGSVYPDICTISLVAVSDVNKHADRIAFWDDVYGFKMSCMKKAVIPEAVVEVLDPKTLISEPCGIKHIDCHTTSISDLEFSSDFTLKITRTSMCTAIAGYFDIYFEKNCHNRVVFSTGPQSTKTHWKQTVFLLEKPFSVKAGEALKGKVTVHKNKKDPRSLTVTLTLNNSTQTYGLQ
3xMBT/D355N UNC Heavy [1, 3]: 1.71 log base 2 | 3xMBT/D355N UNC Light [1, 3]: 2.05 log base 2

Relative to UNC0638 UNC Heavy [2, 6]: 3.21 log base 2 | Relative to UNC0638 UNC Light [2, 6]: −2.20 log base 2 | Relative to UNC0638 Average [2]: 0.50 log base 2
B3: GAPDHS (protein, UniProt O14556 1-408, looked up)
Glyceraldehyde-3-phosphate …: MSKRDIVLTNVTVVQLLRQPCPVTRAPPPPEPKAEVEPQPQPEPTPVREEIKPPPPPLPPHPATPPPKMVSVARELTVGINGFGRIGRLVLRACMEKGVKVVAVNDPFIDPEYMVYMFKYDSTHGRYKGSVEFRNGQLVVDNHEISVYQCKEPKQIPWRAVGSPYVVESTGVYLSIQAASDHISAGAQRVVISAPSPDAPMFVMGVNENDYNPGSMNIVSNASCTTNCLAPLAKVIHERFGIVEGLMTTVHSYTATQKTVDGPSRKAWRDGRGAHQNIIPASTGAAKAVTKVIPELKGKLTGMAFRVPTPDVSVVDLTCRLAQPAPYSAIKEAVKAAAKGPMAGILAYTEDEVVSTDFLGDTHSSIFDAKAGIALNDNFVKLISWYDNEYGYSHRVVDLLRYMFSRDK
3xMBT/D355N UNC Heavy [1, 5]: 3.31 log base 2 | 3xMBT/D355N UNC Light [1, 5]: 1.73 log base 2

Relative to UNC0638 UNC Heavy [2, 4]: 0.22 log base 2 | Relative to UNC0638 UNC Light [2, 4]: −0.01 log base 2 | Relative to UNC0638 Average ([2]; all values in log base 2): 0.11 log base 2
B4: SEC23A (protein, UniProt Q15436 2-765, looked up)
Protein transport protein …: TTYLEFIQQNEERDGVRFSWNVWPSSRLEATRMVVPVAALFTPLKERPDLPPIQYEPVLCSRTTCRAVLNPLCQVDYRAKLWACNFCYQRNQFPPSYAGISELNQPAELLPQFSSIEYVVLRGPQMPLIFLYVVDTCMEDEDLQALKESMQMSLSLLPPTALVGLITFGRMVQVHELGCEGISKSYVFRGTKDLSAKQLQEMLGLSKVPLTQATRGPQVQQPPPSNRFLQPVQKIDMNLTDLLGELQRDPWPVPQGKRPLRSSGVALSIAVGLLECTFPNTGARIMMFIGGPATQGPGMVVGDELKTPIRSWHDIDKDNAKYVKKGTKHFEALANRAATTGHVIDIYACALDQTGLLEMKCCPNLTGGYMVMGDSFNTSLFKQTFQRVFTKDMHGQFKMGFGGTLEIKTSREIKISGAIGPCVSLNSKGPCVSENEIGTGGTCQWKICGLSPTTTLAIYFEVVNQHNAPIPQGGRGAIQFVTQYQHSSGQRRIRVTTIARNWADAQTQIQNIAASFDQEAAAILMARLAIYRAETEEGPDVLRWLDRQLIRLCQKFGEYHKDDPSSFRFSETFSLYPQFMFHLRRSSFLQVFNNSPDESSYYRHHFMRQDLTQSLIMIQPILYAYSFSGPPEPVLLDSSSILADRILLMDTFFQILIYHGETIAQWRKSGYQDMPEYENFRHLLQAPVDDAQEILHSRFPMPRYIDTEHGGSQARFLLSKVNPSQTHNNMYAWGQESGAPILTDDVSLQVFMDHLKKLAVSSAA
3xMBT/D355N UNC Heavy [1, 3]: 2.56 log base 2 | 3xMBT/D355N UNC Light [1, 3]: 3.17 log base 2
